Assays:
[1] = target: BST2 as expressed endogenously on the surface of human cell lines (B-LCL, MM1, U266, MCF-10A, MCF7, MDA-MB-231, T47D) (human) (UniProt Q10589); assay: flow cytometry on MDA-MB-231 cells, mAb 1 ug/ml
[2] = target: BST2 in human tissue microarray cores; assay: immunohistochemistry, tissue microarray #72070, antigen retrieval H1; Placenta: 0 positive of 1 tested specimen
[3] = target: BST2 in human tissue microarray cores; assay: immunohistochemistry, tissue microarray #72070, antigen retrieval H1; BIDC stroma: 0 positive of 40 tested specimens
[4] = target: BST2 in human tissue microarray cores; assay: immunohistochemistry, tissue microarray #72070, antigen retrieval H1; Placenta stroma: 0 positive of 1 tested specimen
[5] = target: BST2 long isoform (BST2-D, full length BST2, 180 amino acids) expressed on HEK293 transfectants (human) (UniProt Q10589); assay: flow cytometry, HEK293 long transfectant, 1 ug/ml antibody, APC-conjugated secondary antibody
[6] = target: BST2 in human tissue microarray cores; assay: immunohistochemistry, tissue microarray #72070, antigen retrieval H1; Breast stroma: 0 positive of 8 tested specimens
[7] = target: BST2 as expressed endogenously on the surface of human cell lines (B-LCL, MM1, U266, MCF-10A, MCF7, MDA-MB-231, T47D) (human) (UniProt Q10589); assay: flow cytometry on MM1 cells, mAb 1 ug/ml
[8] = target: BST2 as expressed endogenously on the surface of human cell lines (B-LCL, MM1, U266, MCF-10A, MCF7, MDA-MB-231, T47D) (human) (UniProt Q10589); assay: flow cytometry dot plot, T47D cells transduced with BST2-silencing shRNA, 26F8 at 2 ug/ml and APC-conjugated secondary antibody
[9] = target: BST2 as expressed endogenously on the surface of human cell lines (B-LCL, MM1, U266, MCF-10A, MCF7, MDA-MB-231, T47D) (human) (UniProt Q10589); assay: flow cytometry on MM1 cells, mAb preincubated with Spartan protein
[10] = target: BST2 medium isoform (BST2-H, 158 amino acids) expressed on HEK293 transfectants; assay: flow cytometry, mAb 1 ug/ml on HEK293-medium cells
[11] = target: Recombinant human BST2 protein (Catalog number 13370-H07H, Sino Biological) (human) (UniProt Q10589); assay: BLI (Octet RED384), mAb 5 ug/ml captured on anti-mouse IgG Fc (AMC) biosensors, BST2 protein 15.625-1000 nM, 1:1 model, global fit
[12] = target: BST2 as expressed endogenously on the surface of human cell lines (B-LCL, MM1, U266, MCF-10A, MCF7, MDA-MB-231, T47D) (human) (UniProt Q10589); assay: flow cytometry on T47D cells, mAb 1 ug/ml
[13] = target: BST2 as expressed endogenously on the surface of human cell lines (B-LCL, MM1, U266, MCF-10A, MCF7, MDA-MB-231, T47D) (human) (UniProt Q10589); assay: flow cytometry, MCF7 cells, APC-conjugated secondary antibody (the text prints 34.7% for the same panel)
[14] = target: BST2 as expressed endogenously on the surface of human cell lines (B-LCL, MM1, U266, MCF-10A, MCF7, MDA-MB-231, T47D) (human) (UniProt Q10589); assay: flow cytometry dot plot, T47D-NS (non-silencing transduction) cells, 26F8 at 2 ug/ml and APC-conjugated secondary antibody; Q3 6.94, Q4 21.4
[15] = target: BST2 as expressed endogenously on the surface of human cell lines (B-LCL, MM1, U266, MCF-10A, MCF7, MDA-MB-231, T47D) (human) (UniProt Q10589); assay: flow cytometry on MM1 cells, mAb not preincubated
[16] = target: BST2 as expressed endogenously on the surface of human cell lines (B-LCL, MM1, U266, MCF-10A, MCF7, MDA-MB-231, T47D) (human) (UniProt Q10589); assay: flow cytometry on B-LCL cells, mAb 1 ug/ml
[17] = target: BST2 as expressed endogenously on the surface of human cell lines (B-LCL, MM1, U266, MCF-10A, MCF7, MDA-MB-231, T47D) (human) (UniProt Q10589); assay: flow cytometry dot plot, T47D cells transduced with BST2-silencing shRNA, 26F8 at 2 ug/ml and APC-conjugated secondary antibody; Q3 58.1, Q4 26.6
[18] = target: BST2 as expressed endogenously on the surface of human cell lines (B-LCL, MM1, U266, MCF-10A, MCF7, MDA-MB-231, T47D) (human) (UniProt Q10589); assay: flow cytometry on MCF-10A cells, mAb 1 ug/ml
[19] = target: BST2 as expressed endogenously on the surface of human cell lines (B-LCL, MM1, U266, MCF-10A, MCF7, MDA-MB-231, T47D) (human) (UniProt Q10589); assay: flow cytometry on MM1 cells, mAb preincubated with recombinant BST2 protein as competitor
[20] = target: BST2 in human tissue microarray cores; assay: immunohistochemistry, tissue microarray #72070, antigen retrieval H1; Normal breast: 0 positive of 8 tested specimens
[21] = target: BST2 as expressed endogenously on the surface of human cell lines (B-LCL, MM1, U266, MCF-10A, MCF7, MDA-MB-231, T47D) (human) (UniProt Q10589); assay: flow cytometry dot plot, T47D-WT cells, 26F8 at 2 ug/ml and APC-conjugated secondary antibody; Q4 (unstained) 2.71
[22] = target: BST2 in human tissue microarray cores; assay: immunohistochemistry, tissue microarray #78070 (normal tissues), antigen retrieval H1; Parenchymal: 0 positive of 7 tested
[23] = target: BST2 as expressed endogenously on the surface of human cell lines (B-LCL, MM1, U266, MCF-10A, MCF7, MDA-MB-231, T47D) (human) (UniProt Q10589); assay: flow cytometry on U266 cells, mAb 1 ug/ml
[24] = target: BST2 as expressed endogenously on the surface of human cell lines (B-LCL, MM1, U266, MCF-10A, MCF7, MDA-MB-231, T47D) (human) (UniProt Q10589); assay: flow cytometry dot plot, T47D-NS (non-silencing transduction) cells, 26F8 at 2 ug/ml and APC-conjugated secondary antibody
[25] = target: BST2 as expressed endogenously on the surface of human cell lines (B-LCL, MM1, U266, MCF-10A, MCF7, MDA-MB-231, T47D) (human) (UniProt Q10589); assay: flow cytometry on MCF7 cells, mAb 1 ug/ml
[26] = target: T1, BST2 long isoform (BST2-D, full length BST2, 180 amino acids) expressed on HEK293 transfectants (human, UniProt Q10589 1-161); assay: flow cytometry, hybridoma supernatant on HEK293-long cells
T1 construct: also called HEK293-long; HEK293 WT-BST2
Method: For flow cytometry assays, cells were detached using 0.05% trypsin-EDTA, counted, washed and resuspend with FACS Buffer (PBS, 2% FBS, 2 mM EDTA). 2×10⁵ cells in 100 ul/well were placed in U-bottom 96-well plate and centrifuged (1000 RPM/3 min/4° C.). The buffer was discarded and 100 ul of the previously collected supernatants with selected monoclonal antibodies were added to the wells and incubated on ice for 30 minutes. After incubation, the plate was washed three times with FACS buffer and 50 ul of diluted (1/250) secondary antibody (Donkey anti-mouse Allophycocyanin (APC) conjugated) were added to the wells and incubated on ice for 20 minutes protected from light. The final wash was repeated 4 times, and the samples were transferred and analyzed at the South Campus Flow Cytometry & Cell Sorting Core Laboratory at MD Anderson Cancer Center. FACS data were analyzed with FlowJo™ Software—for Windows (Version 10.6.1. Ashland, Oreg.: Becton, Dickinson and Company; 2020).

[27] = target: T2, BST2 long isoform peptide (BST2-D peptide), positions 133-156 (human); assay: ELISA dilution assay, plate coated with BST2 peptide alone, hybridoma supernatant undiluted and 1/15, 1/225, 1/3375, OD 450 nm (axis unlabelled on the sheet)
T2 construct: Synthetic 24-mer; the free peptide (not KLH conjugated) coated the ELISA plates; also called BST2-Long (D) peptide; BST2 peptide
T2 peptide: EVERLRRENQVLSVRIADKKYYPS
Method: FIG. 5. Dilution assay. 26 positive clones were tested at serial dilutions as described under methods. Sixteen clones with the highest OD450 nm signal (those with squares around their names) were selected for further characterization. LA1-LA16 are clones picked at the first round of colony pickup; BM1-BM10 clones picked at the second round of colony pickup. PC is the positive control using anti-BST2 mAb (Clone 26F8) 1 ug/ml which recognizes all isoforms. Plates were coated with BST2 peptide alone.
To select the hybridomas capable of producing specific monoclonal antibodies against the BST2-D peptide, ELISA was performed. ELISA plates were coated with a 100 ul coating buffer, containing the BST2-D peptide in a concentration of 1 ug/ml, and incubated overnight at 4° C. Next day, ELISA plates were washed three times with PBST (PBS containing 0.05% v/v Tween®-20) and blocked with 100 ul of blocking buffer (PBS, 1% w/v BSA). After 1-hour blocking at room temperature, 50 ul supernatant from each of the 563 colonies were added to individual wells as the primary antibodies. Anti-BST2 mAb (Clone 26F8) [eBioscience] was used as a positive control and blank wells with secondary antibody only were performed in triplicates. Incubation proceeded for 1 hour followed by three washes. […] The reaction was stopped with H₂SO₄ 0.2N and the OD absorbance values were read at 450 nm. […]

Sequence of Recombinant human BST2 protein (Catalog number 13370-H07H, Sino Biological) (human) (Q10589 49-161 limits assumed): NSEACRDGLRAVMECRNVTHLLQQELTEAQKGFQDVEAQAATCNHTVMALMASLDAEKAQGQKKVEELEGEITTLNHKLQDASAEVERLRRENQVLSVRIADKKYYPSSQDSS
Sequence of BST2 in human tissue microarray cores (chain, as listed by the source limits assumed): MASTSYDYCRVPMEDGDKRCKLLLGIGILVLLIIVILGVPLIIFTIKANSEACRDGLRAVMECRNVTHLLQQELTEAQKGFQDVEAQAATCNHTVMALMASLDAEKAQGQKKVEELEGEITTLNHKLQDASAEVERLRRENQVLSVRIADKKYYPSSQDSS
Sequence of BST2 as expressed endogenously on the surface of human cell lines (B-LCL, MM1, U266, MCF-10A, MCF7, MDA-MB-231, T47D) (human) (Q10589 1-161, stated change not applied): as the sequence (chain, as listed by the source limits assumed) above
T1 sequence (Q10589 1-161 limits assumed): as the sequence (chain, as listed by the source limits assumed) above
Sequence of BST2 long isoform (BST2-D, full length BST2, 180 amino acids) expressed on HEK293 transfectants (human) (Q10589 1-161 limits assumed): as the sequence (chain, as listed by the source limits assumed) above

anti-BST2 monoclonal antibody clone 26F8 (eBioscience)
percentage of cell staining [1]: 28.4% | detectable rate (% of tested specimens positive) [2]: 0% | detectable rate (% of tested specimens positive) [3]: 0% | detectable rate (% of tested specimens positive) [4]: 0% | percent of cells stained [5]: 98.7% | detectable rate (% of tested specimens positive) [6]: 0% | percentage of cell staining [7]: 99.6% | percent of cells in quadrant Q1 (APC positive, GFP negative) [8]: 6.09% | percentage of stained cells [9]: 98.1% | percentage of cells stained [10]: 96.7% | Kd [11]: 34.2 nM | koff [11]: 0.00132 s⁻¹ | kon [11]: 38600 M⁻¹ s⁻¹ | percentage of cell staining [12]: 96.6% | percent of cells stained [13]: 37.7% | percent of cells in quadrant Q2 (APC positive, GFP positive) [14]: 58.5% | percentage of stained cells [15]: 98.2% | percentage of cell staining [16]: 99.7% | percent of cells in quadrant Q2 (APC positive, GFP positive) [17]: 9.27% | percentage of cell staining [18]: 27.7% | percentage of stained cells [19]: 2.6% | detectable rate (% of tested specimens positive) [20]: 0% | percent of cells in quadrant Q1 (APC positive, GFP negative) [21]: 97.2% | detectable rate (% of tested specimens positive) [22]: 0% | percentage of cell staining [23]: 97.1% | percent of cells in quadrant Q1 (APC positive, GFP negative) [24]: 13.1% | percentage of cell staining [25]: 34.7%

B1: LA1 antibody (antibody, IgG1, V domains shown)
VH: EVQLQQSGPELVKPGASVKISCKTSGYTFTEDTMHWVKQSHGKSLEWIGGINPNKGGTSYNQKFKDKATLTVDKSSSTAYMELRSLTSEDSAVYYCATLVDYWGQGTTLTVSS
VL: DIVMTQSQKFMSTSVGDRVSVTCKASQNVGTNVAWYQQKPGQSPKALIHSASYRYSGVPDRFTGSGSGTDFTLTISNVQSEDLAEYFCQQYNSYPLTFGAGTKLELK
notes: Mouse hybridoma antibody, isotype IgG1, kappa; Tested as hybridoma supernatant
percentage of cells stained [26]: 70.9% | binding result [27]: binds

B2: BM7 antibody (antibody, IgG1, V domains shown)
VH: QVTLKESGPGILKPSQTLSLTCSFSGFSLSTSGVGVGWIRQPSGKGLEWLAHIWWDDDEYYNPSLKSQLTISKDTSRNQVFLKITSVDTSDTATYYCARRYYGDAMDYWGQGTAVTVSS
VL: DVVMTQTPVSLPVSLGDQASISCRSTQSLVHSNGHTYLHWYLQKPGQSPKLLIYKVSNRFSGVPDRFSGTGSGTDFTLKISRVEAEDLGVYFCSQSTHVPYTFGGGTKLEIK
notes: Tested as hybridoma supernatant
percentage of cells stained [26]: 39.8%
